{"source": "patent CN111690058A", "target": "S蛋白RBD-His (319Arg-532Asn) (2019-nCoV (SARS-CoV-2)) (UniProt P0DTC2)", "test": "BLI (Fortebio), RBD-His on Anti-Penta-HIS sensor, antibody in solution", "data": [{"substance": "对照抗体CR3022 (antibody)", "values": [{"measurement": "Kd", "result": 2.42, "unit": "nM"}, {"measurement": "koff", "result": 0.000278, "unit": "s⁻¹"}, {"measurement": "kon", "result": 115000, "unit": "M⁻¹ s⁻¹"}]}]}
